# Source: US20230265151A1, “GIP/GLP1 CO-AGONIST COMPOUNDS” (priority 2020, published 2023)
# *1 amine or outer side, *2 acyl side, *3 side chain or, on linkers, in order; H or OH if unused. Where no end group is shown, it is not given here. Side-chain parts run from the residue outwards. [ ]: non-standard residue; d: D form. The star is where a group is joined. Undecanoyl(11-OPh(4-COOH)) = O=C(O)c1ccc(OCCCCCCCCCCC(=O)*)cc1; Decanoyl(10-(4-HOOC-PhO)) = O=C(O)c1ccc(OCCCCCCCCCC(=O)*)cc1; αMePhe(2-F) = C[C@](N)(Cc1ccccc1F)C(=O)O; γGlu = O=C(O)[C@H](CCC(=O)[*:2])N[*:1]; C14 diacid = O=C(O)CCCCCCCCCCCCC(=O)*; αMeY = C[C@](N)(Cc1ccc(O)cc1)C(=O)O; αMeL = CC(C)C[C@](C)(N)C(=O)O; αMeS = C[C@](N)(CO)C(=O)O; Orn = NCCC[C@H](N)C(=O)O; AEEA = NCCOCCOCC(=O)O; Aib = CC(C)(N)C(=O)O
# T1: human GIP receptor (human, UniProt P48546 22-466)
# T1 sequence (looked up): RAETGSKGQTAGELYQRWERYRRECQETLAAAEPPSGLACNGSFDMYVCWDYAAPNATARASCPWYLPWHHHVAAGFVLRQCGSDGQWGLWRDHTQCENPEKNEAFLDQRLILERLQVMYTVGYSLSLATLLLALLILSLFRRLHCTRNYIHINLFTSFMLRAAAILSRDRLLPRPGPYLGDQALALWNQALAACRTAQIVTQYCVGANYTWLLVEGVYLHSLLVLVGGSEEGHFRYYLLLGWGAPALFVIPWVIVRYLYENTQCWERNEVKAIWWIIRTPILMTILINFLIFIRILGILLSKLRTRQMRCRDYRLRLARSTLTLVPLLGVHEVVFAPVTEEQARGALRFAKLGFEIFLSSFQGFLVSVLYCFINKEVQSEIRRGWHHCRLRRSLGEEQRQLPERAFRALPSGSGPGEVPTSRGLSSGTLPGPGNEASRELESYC
# T2: human GIP receptor (human, UniProt P48546 22-466)
# T2 sequence (looked up): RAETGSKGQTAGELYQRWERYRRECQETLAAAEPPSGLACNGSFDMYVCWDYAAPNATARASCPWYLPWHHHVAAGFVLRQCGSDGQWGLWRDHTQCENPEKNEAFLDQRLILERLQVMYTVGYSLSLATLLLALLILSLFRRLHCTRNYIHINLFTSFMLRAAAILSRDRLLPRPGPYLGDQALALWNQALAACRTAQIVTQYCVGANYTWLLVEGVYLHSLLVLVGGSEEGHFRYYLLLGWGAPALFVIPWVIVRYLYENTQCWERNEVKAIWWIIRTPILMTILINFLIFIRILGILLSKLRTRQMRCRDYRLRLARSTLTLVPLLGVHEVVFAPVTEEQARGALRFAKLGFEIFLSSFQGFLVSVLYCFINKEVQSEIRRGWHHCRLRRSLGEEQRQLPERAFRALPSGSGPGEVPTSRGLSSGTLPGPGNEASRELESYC
# Legend:
# Experiment in all cases: cell-based or functional assay
# human GIP receptor [1] = molecular target: T1, human GIP receptor
# human GLP-1 receptor [2] = molecular target: human GLP-1 receptor (human, UniProt P43220 24-463)
# human GIP receptor [3] = molecular target: T2, human GIP receptor; remark: listed apart in the source
# human GLP-1 receptor [4] = molecular target: human GLP-1 receptor (human, UniProt P43220 24-463); remark: listed apart in the source
Binder,cAMP EC50 (1.0% HSA) (human GIP receptor [3]) [nM],cAMP EC50 (1.0% HSA) (human GLP-1 receptor [4]) [nM],also measured
Y[Aib]EGT[αMePhe(2-F)]TSDV[Aib]I[αMeL]LD[Orn]K([AEEA-AEEA-γGlu-C14 diacid])AQ[Aib]EFI[dE][αMeY]LIEGGK([AEEA-AEEA-γGlu-C14 diacid])SSGAPPPS-NH2 (N-terminus assumed; SMILES CC[C@H](C)[C@H](NC(=O)[C@H](CC(C)C)NC(=O)[C@](C)(Cc1ccc(O)cc1)NC(=O)[C@@H](CCC(=O)O)NC(=O)[C@@H](NC(=O)[C@H](Cc1ccccc1)NC(=O)[C@H](CCC(=O)O)NC(=O)C(C)(C)NC(=O)[C@H](CCC(N)=O)NC(=O)[C@H](C)NC(=O)[C@H](CCCCNC(=O)COCCOCCNC(=O)COCCOCCNC(=O)CC[C@H](NC(=O)CCCCCCCCCCCCC(=O)O)C(=O)O)NC(=O)[C@H](CCCN)NC(=O)[C@H](CC(=O)O)NC(=O)[C@H](CC(C)C)NC(=O)[C@](C)(CC(C)C)NC(=O)[C@@H](NC(=O)C(C)(C)NC(=O)[C@@H](NC(=O)[C@H](CC(=O)O)NC(=O)[C@H](CO)NC(=O)[C@@H](NC(=O)[C@](C)(Cc1ccccc1F)NC(=O)[C@@H](NC(=O)CNC(=O)[C@H](CCC(=O)O)NC(=O)C(C)(C)NC(=O)[C@@H](N)Cc1ccc(O)cc1)[C@@H](C)O)[C@@H](C)O)C(C)C)[C@@H](C)CC)[C@@H](C)CC)C(=O)N[C@@H](CCC(=O)O)C(=O)NCC(=O)NCC(=O)N[C@@H](CCCCNC(=O)COCCOCCNC(=O)COCCOCCNC(=O)CC[C@H](NC(=O)CCCCCCCCCCCCC(=O)O)C(=O)O)C(=O)N[C@@H](CO)C(=O)N[C@@H](CO)C(=O)NCC(=O)N[C@@H](C)C(=O)N1CCC[C@H]1C(=O)N1CCC[C@H]1C(=O)N1CCC[C@H]1C(=O)N[C@@H](CO)C(N)=O) [Example 91],–,–,"EC50, cAMP (human GIP receptor [1]): 0.0739 nM; Emax, cAMP (human GIP receptor [1]): 92.8%; EC50, cAMP (human GLP-1 receptor [2]): 0.153 nM; Emax, cAMP (human GLP-1 receptor [2]): 94%"
Y[Aib]EGT[αMePhe(2-F)]TSDV[Aib]I[αMeL]LD[Orn]IAQ[Aib]EFIK([AEEA-AEEA-γGlu-Decanoyl(10-(4-HOOC-PhO))])[αMeY]LIK([AEEA-AEEA-γGlu-Decanoyl(10-(4-HOOC-PhO))])GGPSSGAPPPS-NH2 [Example 308],10.5,67.3,–
Y[Aib]EGT[αMePhe(2-F)]TSDV[Aib]I[αMeL]LD[Orn]IAQ[Aib]EFIK([AEEA-AEEA-AEEA-γGlu-C14 diacid])[αMeY]LIK([AEEA-AEEA-AEEA-γGlu-C14 diacid])GGPSSGAPPPS-NH2 (N-terminus assumed; SMILES CC[C@H](C)[C@H](NC(=O)[C@H](CCCN)NC(=O)[C@H](CC(=O)O)NC(=O)[C@H](CC(C)C)NC(=O)[C@](C)(CC(C)C)NC(=O)[C@@H](NC(=O)C(C)(C)NC(=O)[C@@H](NC(=O)[C@H](CC(=O)O)NC(=O)[C@H](CO)NC(=O)[C@@H](NC(=O)[C@](C)(Cc1ccccc1F)NC(=O)[C@@H](NC(=O)CNC(=O)[C@H](CCC(=O)O)NC(=O)C(C)(C)NC(=O)[C@@H](N)Cc1ccc(O)cc1)[C@@H](C)O)[C@@H](C)O)C(C)C)[C@@H](C)CC)C(=O)N[C@@H](C)C(=O)N[C@@H](CCC(N)=O)C(=O)NC(C)(C)C(=O)N[C@@H](CCC(=O)O)C(=O)N[C@@H](Cc1ccccc1)C(=O)N[C@H](C(=O)N[C@@H](CCCCNC(=O)COCCOCCNC(=O)COCCOCCNC(=O)COCCOCCNC(=O)CC[C@H](NC(=O)CCCCCCCCCCCCC(=O)O)C(=O)O)C(=O)N[C@@](C)(Cc1ccc(O)cc1)C(=O)N[C@@H](CC(C)C)C(=O)N[C@H](C(=O)N[C@@H](CCCCNC(=O)COCCOCCNC(=O)COCCOCCNC(=O)COCCOCCNC(=O)CC[C@H](NC(=O)CCCCCCCCCCCCC(=O)O)C(=O)O)C(=O)NCC(=O)NCC(=O)N1CCC[C@H]1C(=O)N[C@@H](CO)C(=O)N[C@@H](CO)C(=O)NCC(=O)N[C@@H](C)C(=O)N1CCC[C@H]1C(=O)N1CCC[C@H]1C(=O)N1CCC[C@H]1C(=O)N[C@@H](CO)C(N)=O)[C@@H](C)CC)[C@@H](C)CC) [Example 344],6.78,48.3,cAMP Emax (1.0% HSA) (human GIP receptor [3]): 87.3%
Y[Aib]EGT[αMePhe(2-F)]TSDV[αMeS]I[αMeL]LD[Orn]IAQ[Aib]EFIK([AEEA-AEEA-γGlu-C14 diacid])[αMeY]LIK([AEEA-AEEA-γGlu-C14 diacid])GGPSSGAPPPS-NH2 (N-terminus assumed; SMILES CC[C@H](C)[C@H](NC(=O)[C@H](CCCN)NC(=O)[C@H](CC(=O)O)NC(=O)[C@H](CC(C)C)NC(=O)[C@](C)(CC(C)C)NC(=O)[C@@H](NC(=O)[C@](C)(CO)NC(=O)[C@@H](NC(=O)[C@H](CC(=O)O)NC(=O)[C@H](CO)NC(=O)[C@@H](NC(=O)[C@](C)(Cc1ccccc1F)NC(=O)[C@@H](NC(=O)CNC(=O)[C@H](CCC(=O)O)NC(=O)C(C)(C)NC(=O)[C@@H](N)Cc1ccc(O)cc1)[C@@H](C)O)[C@@H](C)O)C(C)C)[C@@H](C)CC)C(=O)N[C@@H](C)C(=O)N[C@@H](CCC(N)=O)C(=O)NC(C)(C)C(=O)N[C@@H](CCC(=O)O)C(=O)N[C@@H](Cc1ccccc1)C(=O)N[C@H](C(=O)N[C@@H](CCCCNC(=O)COCCOCCNC(=O)COCCOCCNC(=O)CC[C@H](NC(=O)CCCCCCCCCCCCC(=O)O)C(=O)O)C(=O)N[C@@](C)(Cc1ccc(O)cc1)C(=O)N[C@@H](CC(C)C)C(=O)N[C@H](C(=O)N[C@@H](CCCCNC(=O)COCCOCCNC(=O)COCCOCCNC(=O)CC[C@H](NC(=O)CCCCCCCCCCCCC(=O)O)C(=O)O)C(=O)NCC(=O)NCC(=O)N1CCC[C@H]1C(=O)N[C@@H](CO)C(=O)N[C@@H](CO)C(=O)NCC(=O)N[C@@H](C)C(=O)N1CCC[C@H]1C(=O)N1CCC[C@H]1C(=O)N1CCC[C@H]1C(=O)N[C@@H](CO)C(N)=O)[C@@H](C)CC)[C@@H](C)CC) [Example 305],4.34,80.3,cAMP Emax (1.0% HSA) (human GLP-1 receptor [4]): 125%
YXEGTXTSDXXIXLDXIAQXEFIKXLIKGGPSSGAPPPS (Y-Aib-EGT-αMeF(2F)-TSD-4Pal-Aib-I-αMeL-LD-Orn-IAQ-Aib-EFIK((2-[2-(2-Amino-ethoxy)-ethoxy]-acetyl)-(γ-Glu)-CO-(CH2)12-CO2H)-αMeY-LIK((2-[2-(2-Amino-ethoxy)-ethoxy]-acetyl)-(γ-Glu)-CO-(CH2)12-CO2H)GGPSSGAPPPS-NH2) [Example 339],4.35,68.2,cAMP Emax (1.0% HSA) (human GLP-1 receptor [4]): 115%
Y[Aib]EGT[αMePhe(2-F)]TSDV[Aib]I[αMeL]LD[Orn]IAQ[Aib]EFIK([AEEA-AEEA-γGlu-C14 diacid])[αMeY]LIK([AEEA-AEEA-γGlu-C14 diacid])GGPSSGAPPPS-NH2 [Example 304],4.83,64.2,–
Y[Aib]EGT[αMePhe(2-F)]TSDV[αMeS]I[αMeL]LD[Orn]IAQ[Aib]EFIK([AEEA-AEEA-γGlu-Decanoyl(10-(4-HOOC-PhO))])[αMeY]LIK([AEEA-AEEA-γGlu-Decanoyl(10-(4-HOOC-PhO))])GGPSSGAPPPS-NH2 [Example 309],6.08,64.6,–
Y[Aib]EGT[αMePhe(2-F)]TSDV[Aib]I[αMeL]LD[Orn]IAQ[Aib]EFIK([AEEA-AEEA-γGlu-Undecanoyl(11-OPh(4-COOH))])[αMeY]LIK([AEEA-AEEA-γGlu-Undecanoyl(11-OPh(4-COOH))])GGPSSGAPPPS-NH2 [Example 313],21.9,98.8,–
